From patent US20180009871A1 (INTARCIA THERAPEUTICS, published 2018)
Where no end group is shown, it is not given here. [ ]: non-standard residue; d: D form. Formula III = not defined here; Formula II = not defined here; Aib = CC(C)(N)C(=O)O

B1: Compound A101 (peptide)
peptide: YGHGTFTSDHSKYLD[Aib]KRAQEFVKWLEDE-OH
modifications: N-terminus assumed
SMILES: CC(C)C[C@H](NC(=O)[C@H](Cc1c[nH]c2ccccc12)NC(=O)[C@H](CCCCN)NC(=O)[C@@H](NC(=O)[C@H](Cc1ccccc1)NC(=O)[C@H](CCC(=O)O)NC(=O)[C@H](CCC(N)=O)NC(=O)[C@H](C)NC(=O)[C@H](CCCNC(=N)N)NC(=O)[C@H](CCCCN)NC(=O)C(C)(C)NC(=O)[C@H](CC(=O)O)NC(=O)[C@H](CC(C)C)NC(=O)[C@H](Cc1ccc(O)cc1)NC(=O)[C@H](CCCCN)NC(=O)[C@H](CO)NC(=O)[C@H](Cc1c[nH]cn1)NC(=O)[C@H](CC(=O)O)NC(=O)[C@H](CO)NC(=O)[C@@H](NC(=O)[C@H](Cc1ccccc1)NC(=O)[C@@H](NC(=O)CNC(=O)[C@H](Cc1c[nH]cn1)NC(=O)CNC(=O)[C@@H](N)Cc1ccc(O)cc1)[C@@H](C)O)[C@@H](C)O)C(C)C)C(=O)N[C@@H](CCC(=O)O)C(=O)N[C@@H](CC(=O)O)C(=O)N[C@@H](CCC(=O)O)C(=O)O
B2: Compound A99 (peptide)
peptide: YSHGTFTSDYSKYLD[Aib]KRAQEFV[Aib]WLEDEPSSGAPPPS-OH
modifications: N-terminus assumed
SMILES: CC(C)C[C@H](NC(=O)[C@H](Cc1ccc(O)cc1)NC(=O)[C@H](CCCCN)NC(=O)[C@H](CO)NC(=O)[C@H](Cc1ccc(O)cc1)NC(=O)[C@H](CC(=O)O)NC(=O)[C@H](CO)NC(=O)[C@@H](NC(=O)[C@H](Cc1ccccc1)NC(=O)[C@@H](NC(=O)CNC(=O)[C@H](Cc1c[nH]cn1)NC(=O)[C@H](CO)NC(=O)[C@@H](N)Cc1ccc(O)cc1)[C@@H](C)O)[C@@H](C)O)C(=O)N[C@@H](CC(=O)O)C(=O)NC(C)(C)C(=O)N[C@@H](CCCCN)C(=O)N[C@@H](CCCNC(=N)N)C(=O)N[C@@H](C)C(=O)N[C@@H](CCC(N)=O)C(=O)N[C@@H](CCC(=O)O)C(=O)N[C@@H](Cc1ccccc1)C(=O)N[C@H](C(=O)NC(C)(C)C(=O)N[C@@H](Cc1c[nH]c2ccccc12)C(=O)N[C@@H](CC(C)C)C(=O)N[C@@H](CCC(=O)O)C(=O)N[C@@H](CC(=O)O)C(=O)N[C@@H](CCC(=O)O)C(=O)N1CCC[C@H]1C(=O)N[C@@H](CO)C(=O)N[C@@H](CO)C(=O)NCC(=O)N[C@@H](C)C(=O)N1CCC[C@H]1C(=O)N1CCC[C@H]1C(=O)N1CCC[C@H]1C(=O)N[C@@H](CO)C(=O)O)C(C)C
B3: Compound A100 (peptide)
peptide: YSHGTFTSDYSKYLD[Aib]KRAQEFV[Aib]WLEDE-OH
modifications: N-terminus assumed
SMILES: CC(C)C[C@H](NC(=O)[C@H](Cc1ccc(O)cc1)NC(=O)[C@H](CCCCN)NC(=O)[C@H](CO)NC(=O)[C@H](Cc1ccc(O)cc1)NC(=O)[C@H](CC(=O)O)NC(=O)[C@H](CO)NC(=O)[C@@H](NC(=O)[C@H](Cc1ccccc1)NC(=O)[C@@H](NC(=O)CNC(=O)[C@H](Cc1c[nH]cn1)NC(=O)[C@H](CO)NC(=O)[C@@H](N)Cc1ccc(O)cc1)[C@@H](C)O)[C@@H](C)O)C(=O)N[C@@H](CC(=O)O)C(=O)NC(C)(C)C(=O)N[C@@H](CCCCN)C(=O)N[C@@H](CCCNC(=N)N)C(=O)N[C@@H](C)C(=O)N[C@@H](CCC(N)=O)C(=O)N[C@@H](CCC(=O)O)C(=O)N[C@@H](Cc1ccccc1)C(=O)N[C@H](C(=O)NC(C)(C)C(=O)N[C@@H](Cc1c[nH]c2ccccc12)C(=O)N[C@@H](CC(C)C)C(=O)N[C@@H](CCC(=O)O)C(=O)N[C@@H](CC(=O)O)C(=O)N[C@@H](CCC(=O)O)C(=O)O)C(C)C

The binders below were run against human glucagon receptor (GCGR) (human, UniProt P47871 26-477) (assay: cell-based or functional assay).

Binder | GluR pEC 50 [pEC50]
YSHGTFTSDYSKYLDSARAQEFVKWLEDEPSSK(Formula II)APPPS-NH2 (reading uncertain) [Compound B41] | 10.6
YSQGTFTSDK(Formula III)SKYLDAARAQEFVKWLEDEPKSKSPPPS-NH2 (reading uncertain) [Compound B40] | 11.9
YSQGTFTSDYSKYLDAARAQEFVK(Formula III)WLEDEPKSKSPPPS-NH2 (reading uncertain) [Compound B38] | 9.6
YSHGTFTSDK(Formula II)SKYLDSARAQEFVKWLEDEPSSGAPPPS-NH2 (reading uncertain) [Compound B44] | 11.9
YSQGTFTSDYSKYLDAARAQEFVKWLEDEPKSK(Formula III)SPPPS-NH2 (reading uncertain) [Compound B37] | 10.1
YSHGTFTSDYSKYLDSARAQEFVK(Formula II)WLEDEPSSGAPPPS-NH2 (reading uncertain) [Compound B42] | 9.7
YSHGTFTSDYSKYLDK(Formula III)ARAQEFVKWLEDEPSSGAPPPS-NH2 (reading uncertain) [Compound B47] | 10.8
YSHGTFTSDYSKYLDSARAQEFVK(Formula III)WLEDEPSSGAPPPS-NH2 (reading uncertain) [Compound B46] | 9.5
YSQGTFTSDYSKYLDK(Formula III)ARAQEFVKWLEDEPKSKSPPPS-NH2 (reading uncertain) [Compound B39] | 10.9
YSHGTFTSDYSKYLDK(Formula II)ARAQEFVKWLEDEPSSGAPPPS-NH2 (reading uncertain) [Compound B43] | 11.1
YSHGTFTSDK(Formula III)SKYLDSARAQEFVKWLEDEPSSGAPPPS-NH2 (reading uncertain) [Compound B48] | 9.2
YSHGTFTSDYSKYLDSARAQEFVKWLEDEPSSK(Formula III)APPPS-NH2 (reading uncertain) [Compound B45] | 9.8

These binders were tested against T1, human GLP-1 receptor (GLP-1R) (human, UniProt P43220 24-463) (assay: cell-based or functional assay).
T1 sequence (P43220 24-463): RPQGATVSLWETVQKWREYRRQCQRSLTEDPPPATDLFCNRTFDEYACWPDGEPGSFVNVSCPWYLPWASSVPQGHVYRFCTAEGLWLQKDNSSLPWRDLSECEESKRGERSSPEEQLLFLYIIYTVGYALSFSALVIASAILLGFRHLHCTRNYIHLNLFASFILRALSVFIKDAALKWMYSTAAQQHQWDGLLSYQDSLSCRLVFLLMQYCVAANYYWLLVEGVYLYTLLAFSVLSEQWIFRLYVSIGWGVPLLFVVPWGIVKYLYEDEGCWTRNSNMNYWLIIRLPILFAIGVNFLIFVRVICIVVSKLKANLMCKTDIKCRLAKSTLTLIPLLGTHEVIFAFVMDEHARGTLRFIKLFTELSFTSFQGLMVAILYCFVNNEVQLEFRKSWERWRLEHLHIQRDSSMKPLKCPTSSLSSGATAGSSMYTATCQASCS

Binder | GLP-1R pEC 50 [pEC50]
YSHGTFTSDYSKYLDSARAQEFVKWLEDEPSSK(Formula II)APPPS-NH2 (reading uncertain) [Compound B41] | < 6
YSQGTFTSDK(Formula III)SKYLDAARAQEFVKWLEDEPKSKSPPPS-NH2 (reading uncertain) [Compound B40] | 7.2
YSQGTFTSDYSKYLDAARAQEFVK(Formula III)WLEDEPKSKSPPPS-NH2 (reading uncertain) [Compound B38] | 6
YSHGTFTSDK(Formula II)SKYLDSARAQEFVKWLEDEPSSGAPPPS-NH2 (reading uncertain) [Compound B44] | 7.2
YSQGTFTSDYSKYLDAARAQEFVKWLEDEPKSK(Formula III)SPPPS-NH2 (reading uncertain) [Compound B37] | 6.2
YSHGTFTSDYSKYLDSARAQEFVK(Formula II)WLEDEPSSGAPPPS-NH2 (reading uncertain) [Compound B42] | < 6
YSHGTFTSDYSKYLDK(Formula III)ARAQEFVKWLEDEPSSGAPPPS-NH2 (reading uncertain) [Compound B47] | < 6
YSHGTFTSDYSKYLDSARAQEFVK(Formula III)WLEDEPSSGAPPPS-NH2 (reading uncertain) [Compound B46] | < 6
YSQGTFTSDYSKYLDK(Formula III)ARAQEFVKWLEDEPKSKSPPPS-NH2 (reading uncertain) [Compound B39] | 6
YSHGTFTSDYSKYLDK(Formula II)ARAQEFVKWLEDEPSSGAPPPS-NH2 (reading uncertain) [Compound B43] | < 6
YSHGTFTSDK(Formula III)SKYLDSARAQEFVKWLEDEPSSGAPPPS-NH2 (reading uncertain) [Compound B48] | < 6
YSHGTFTSDYSKYLDSARAQEFVKWLEDEPSSK(Formula III)APPPS-NH2 (reading uncertain) [Compound B45] | < 6

Target: T1, human GLP-1 receptor (GLP-1R)
Experiment: cell-based or functional assay
Remark: another data set of the same source

Binder | hGLP1 pEC50 (cAMP) [pEC50]
B1 | < 9
YSHGTFTSDYTRLLESKRAQEFVKWLEDEPSSGAPPPS [Compound A98] | < 9
B2 | < 9
B3 | < 9
YSHGTFTSDYSKYLDAARAQEFVKWLEDEPSSGAPPPS [Compound A97] | < 9
